Patent US20200216495A1 (ADRX, published 2020)
Where “and” joins values, the source holds several entries; their conditions need not be identical. Identical values can stand only once. Square brackets hold non-standard residues; d marks the D form. Ends that are not written are not given here. dCit = NC(=O)NCCC[C@@H](N)C(=O)O; dNle = CCCC[C@@H](N)C(=O)O

B1: lkiyihy (peptide)
peptide: [dL][dK][dI][dY][dI][dH][dY]
B2: welkvrw (peptide)
peptide: [dW][dE][dL][dK][dV][dR][dW]
B3: lkiuihy (peptide)
peptide: [dL][dK][dI][dNle][dI][dH][dY]
B4: wnlkvrw (peptide)
peptide: [dW][dN][dL][dK][dV][dR][dW]
B5: lkieihy (peptide)
peptide: [dL][dK][dI][dE][dI][dH][dY]
B6: lrlkvrww (peptide)
peptide: [dL][dR][dL][dK][dV][dR][dW][dW]
B7: frlkirw (peptide)
peptide: [dF][dR][dL][dK][dI][dR][dW]
B8: wkvkiqyh (peptide)
peptide: [dW][dK][dV][dK][dI][dQ][dY][dH]
B9: frlkvrww (peptide)
peptide: [dF][dR][dL][dK][dV][dR][dW][dW]
B10: lkirizy (peptide)
peptide: [dL][dK][dI][dR][dI][dCit][dY]
B11: leirihy (peptide)
peptide: [dL][dE][dI][dR][dI][dH][dY]
B12: wrlrvrww (peptide)
peptide: [dW][dR][dL][dR][dV][dR][dW][dW]
B13: fririhhw (peptide)
peptide: [dF][dR][dI][dR][dI][dH][dH][dW]
B14: lrlkvrwl (peptide)
peptide: [dL][dR][dL][dK][dV][dR][dW][dL]
B15: wkvqvrlw (peptide)
peptide: [dW][dK][dV][dQ][dV][dR][dL][dW]
B16: hyhirikl (peptide)
peptide: [dH][dY][dH][dI][dR][dI][dK][dL]
B17: wqlkvrw (peptide)
peptide: [dW][dQ][dL][dK][dV][dR][dW]
B18: felklrwh (peptide)
peptide: [dF][dE][dL][dK][dL][dR][dW][dH]
B19: lkiriey (peptide)
peptide: [dL][dK][dI][dR][dI][dE][dY]
B20: wlrvqvkw (peptide)
peptide: [dW][dL][dR][dV][dQ][dV][dK][dW]
B21: fhirirhw (peptide)
peptide: [dF][dH][dI][dR][dI][dR][dH][dW]
B22: fklklwwf (peptide)
peptide: [dF][dK][dL][dK][dL][dW][dW][dF]
B23: leikirhw (peptide)
peptide: [dL][dE][dI][dK][dI][dR][dH][dW]
B24: fhihikfh (peptide)
peptide: [dF][dH][dI][dH][dI][dK][dF][dH]
B25: feirlwhh (peptide)
peptide: [dF][dE][dI][dR][dL][dW][dH][dH]
B26: fklklrw (peptide)
peptide: [dF][dK][dL][dK][dL][dR][dW]
B27: wriwiryw (peptide)
peptide: [dW][dR][dI][dW][dI][dR][dY][dW]
B28: rlkvrwww (peptide)
peptide: [dR][dL][dK][dV][dR][dW][dW][dW]
B29: lkirirfh (peptide)
peptide: [dL][dK][dI][dR][dI][dR][dF][dH]
B30: wlrvqvklw (peptide)
peptide: [dW][dL][dR][dV][dQ][dV][dK][dL][dW]
B31: frlkvrwf (peptide)
peptide: [dF][dR][dL][dK][dV][dR][dW][dF]
B32: felhikwh (peptide)
peptide: [dF][dE][dL][dH][dI][dK][dW][dH]
B33: wkvnvrlw (peptide)
peptide: [dW][dK][dV][dN][dV][dR][dL][dW]
B34: fklklww (peptide)
peptide: [dF][dK][dL][dK][dL][dW][dW]
B35: fkirikwh (peptide)
peptide: [dF][dK][dI][dR][dI][dK][dW][dH]
B36: wrlriww (peptide)
peptide: [dW][dR][dL][dR][dI][dW][dW]
B37: wrfhihfy (peptide)
peptide: [dW][dR][dF][dH][dI][dH][dF][dY]
B38: wrlkvrwl (peptide)
peptide: [dW][dR][dL][dK][dV][dR][dW][dL]
B39: lefelkyw (peptide)
peptide: [dL][dE][dF][dE][dL][dK][dY][dW]
B40: wrlnvnw (peptide)
peptide: [dW][dR][dL][dN][dV][dN][dW]
B41: frlriww (peptide)
peptide: [dF][dR][dL][dR][dI][dW][dW]
B42: fkielhwh (peptide)
peptide: [dF][dK][dI][dE][dL][dH][dW][dH]
B43: lkilihyh (peptide)
peptide: [dL][dK][dI][dL][dI][dH][dY][dH]
B44: lkiriay (peptide)
peptide: [dL][dK][dI][dR][dI][dA][dY]
B45: wklklwww (peptide)
peptide: [dW][dK][dL][dK][dL][dW][dW][dW]
B46: wrlrihm (PEPTIDE ID NO: 453) (peptide)
peptide: [dW][dR][dL][dR][dI][dH][dM]
B47: lklrirhh (PEPTIDE ID NO: 415) (peptide)
peptide: [dL][dK][dL][dR][dI][dR][dH][dH]
B48: wrlkerww (PEPTIDE ID NO: 241) (peptide)
peptide: [dW][dR][dL][dK][dE][dR][dW][dW]
B49: mrlrihw (PEPTIDE ID NO: 242) (peptide)
peptide: [dM][dR][dL][dR][dI][dH][dW]
B50: klkirihy (PEPTIDE ID NO: 243) (peptide)
peptide: [dK][dL][dK][dI][dR][dI][dH][dY]
B51: lkirizy (PEPTIDE ID NO: 244) (peptide)
peptide: [dL][dK][dI][dR][dI][dCit][dY]
B52: lkirihy (PEPTIDE ID NO: 245) (peptide)
peptide: [dL][dK][dI][dR][dI][dH][dY]
B53: wrmrihw (PEPTIDE ID NO: 246) (peptide)
peptide: [dW][dR][dM][dR][dI][dH][dW]
B54: flkirihy (PEPTIDE ID NO: 247) (peptide)
peptide: [dF][dL][dK][dI][dR][dI][dH][dY]
B55: fklklrw (PEPTIDE ID NO: 413) (peptide)
peptide: [dF][dK][dL][dK][dL][dR][dW]
B56: lkirihyl (PEPTIDE ID NO: 193) (peptide)
peptide: [dL][dK][dI][dR][dI][dH][dY][dL]
B57: fklrlrhw (PEPTIDE ID NO: 123) (peptide)
peptide: [dF][dK][dL][dR][dL][dR][dH][dW]
B58: fklkikw (PEPTIDE ID NO: 132) (peptide)
peptide: [dF][dK][dL][dK][dI][dK][dW]
B59: wrlkvaw (PEPTIDE ID NO: 248) (peptide)
peptide: [dW][dR][dL][dK][dV][dA][dW]
B60: lkiklrhy (PEPTIDE ID NO: 144) (peptide)
peptide: [dL][dK][dI][dK][dL][dR][dH][dY]

What was measured:
[1] = target: Ac-VQIINK-NH2 (SEQ ID NO: 23) (N-terminal acetyl (Ac); C-terminal amide (NH2)); assay: cell-based or functional assay
Tau40 P301L protein = Tau40 P301L protein (human); assay: cell-based or functional assay

| Binder | VQIINK Inhibition IC50 [1] | IC50, Tau40 assay (ThT) (Tau40 P301L protein) |
| --- | --- | --- |
| B1 | 0.17 µm |  |
| B2 | 0.26 µm |  |
| B3 | 0.26 µm |  |
| B4 | 0.41 µm |  |
| B5 | 0.65 µm |  |
| B6 | 0.67 µm |  |
| B7 | 0.69 µm |  |
| B8 | 0.75 µm |  |
| B9 | 0.76 µm |  |
| B10 | 0.76 µm |  |
| B11 | 0.77 µm |  |
| B12 | 0.79 µm |  |
| B13 | 0.82 µm |  |
| B14 | 0.93 µm |  |
| B15 | 0.94 µm |  |
| B16 | 0.96 µm |  |
| B17 | 0.97 µm |  |
| B18 | 1.03 µm |  |
| B19 | 1.05 µm |  |
| B20 | 1.08 µm |  |

| Binder | VQIINK Inhibition IC50 [1] | IC50, Tau40 assay (ThT) (Tau40 P301L protein) |
| --- | --- | --- |
| B21 | 1.1 µm |  |
| B22 | 1.15 µm |  |
| B23 | 1.15 µm |  |
| B24 | 1.16 µm |  |
| B25 | 1.17 µm |  |
| B26 | 1.2 µm |  |
| B27 | 1.2 µm |  |
| B28 | 1.21 µm |  |
| B29 | 1.24 µm |  |
| B30 | 1.25 µm |  |
| B31 | 1.26 µm and 2.57 µm |  |
| B32 | 1.29 µm |  |
| B33 | 1.29 µm |  |
| B34 | 1.3 µm |  |
| B35 | 1.3 µm |  |
| B36 | 1.34 µm |  |
| B37 | 1.35 µm |  |
| B38 | 1.37 µm |  |
| B39 | 1.38 µm |  |
| B40 | 1.38 µm |  |

| Binder | VQIINK Inhibition IC50 [1] | IC50, Tau40 assay (ThT) (Tau40 P301L protein) |
| --- | --- | --- |
| B41 | 1.4 µm |  |
| B42 | 1.41 µm |  |
| B43 | 1.41 µm |  |
| B44 | 1.41 µm |  |
| B45 | 1.44 µm |  |
| B46 |  | 580 nM |
| B47 |  | 1010 nM |
| B48 |  | 1010 nM |
| B49 |  | 1010 nM |
| B50 |  | 1010 nM |
| B51 |  | 1030 nM |
| B52 |  | 1040 nM |
| B53 |  | 1040 nM |
| B54 |  | 1040 nM |
| B55 |  | 1050 nM |
| B56 |  | 650 nM |
| B57 |  | 1070 nM |
| B58 |  | 1080 nM and 1100 nM |
| B59 |  | 1080 nM |
| B60 |  | 1090 nM |
